B1: DAT 0120: GLP-1 (7-37) A8G, helical linker, DOM7h-14 fusion (other)
chain: HGEGTFTSDVSSYLEGQAAKEFIAWLVKGRGKEAAAKEAAAKEAAAKELAAKEAAAKEAAAKEAAAKELAADIQMTQSPSSLSASVGDRVTITCRASQWIGSQLSWYQQKPGKAPKLLIMWRSSLQSGVPSRFSGSGSGTDFTLTISSLQPEDFATYYCAQGAALPRTFGQGTKVEIKR
notes: also called DAT 0120: GLP-1 A8G, helical linker, DOM7h-14 fusion
B2: Rat serum albumin (other, UniProt P02770 25-608, looked up)
chain: EAHKSEIAHRFKDLGEQHFKGLVLIAFSQYLQKCPYEEHIKLVQEVTDFAKTCVADENAENCDKSIHTLFGDKLCAIPKLRDNYGELADCCAKQEPERNECFLQHKDDNPNLPPFQRPEAEAMCTSFQENPTSFLGHYLHEVARRHPYFYAPELLYYAEKYNEVLTQCCTESDKAACLTPKLDAVKEKALVAAVRQRMKCSSMQRFGERAFKAWAVARMSQRFPNAEFAEITKLATDVTKINKECCHGDLLECADDRAELAKYMCENQATISSKLQACCDKPVLQKSQCLAEIEHDNIPADLPSIAADFVEDKEVCKNYAEAKDVFLGTFLYEYSRRHPDYSVSLLLRLAKKYEATLEKCCAEGDPPACYGTVLAEFQPLVEEPKNLVKTNCELYEKLGEYGFQNAVLVRYTQKAPQVSTPTLVEAARNLGRVGTKCCTLPEAQRLPCVEDYLSAILNRLCVLHEKTPVSEKVTKCCSGSLVERRPCFSALTVDETYVPKEFKAETFTFHSDICTLPDKEKQIKKQTALAELVKHKPKATEDQLKTVMGDFAQFVDKCCKAADKDNCFATEGPNLVARSKEALA
notes: also called RSA

Experiments:
Test in all cases: SPR (Biacore), serum albumin immobilised on CM5 chip, fusion flowed at 16 nM to 2 uM
Human serum albumin = biological target: T1, Human serum albumin (human, UniProt P02768 25-609)
T1 construct: also called HSA
Experimental: (§1) The analysis was performed using a CM5 Biacore chip (carboxymethylated dextran matrix) that was coated with serum albumin.
(§2) Affinity (KD) was calculated from the BIACORE traces by fitting on-rate and off-rate curves to traces generated by concentrations of dAb in the region of the KD.

Rat serum albumin = biological target: B2
Experimental: as §1, §2

Mouse serum albumin = biological target: T2, Mouse serum albumin (mouse, UniProt P07724 25-608)
T2 construct: also called MSA
Experimental: as §1, §2

[1] = biological target: DAT 0117: Exendin 4, helical linker, DOM7h-14 fusion
Experimental: as §1, §2

T2 sequence (P07724 25-608 limits assumed): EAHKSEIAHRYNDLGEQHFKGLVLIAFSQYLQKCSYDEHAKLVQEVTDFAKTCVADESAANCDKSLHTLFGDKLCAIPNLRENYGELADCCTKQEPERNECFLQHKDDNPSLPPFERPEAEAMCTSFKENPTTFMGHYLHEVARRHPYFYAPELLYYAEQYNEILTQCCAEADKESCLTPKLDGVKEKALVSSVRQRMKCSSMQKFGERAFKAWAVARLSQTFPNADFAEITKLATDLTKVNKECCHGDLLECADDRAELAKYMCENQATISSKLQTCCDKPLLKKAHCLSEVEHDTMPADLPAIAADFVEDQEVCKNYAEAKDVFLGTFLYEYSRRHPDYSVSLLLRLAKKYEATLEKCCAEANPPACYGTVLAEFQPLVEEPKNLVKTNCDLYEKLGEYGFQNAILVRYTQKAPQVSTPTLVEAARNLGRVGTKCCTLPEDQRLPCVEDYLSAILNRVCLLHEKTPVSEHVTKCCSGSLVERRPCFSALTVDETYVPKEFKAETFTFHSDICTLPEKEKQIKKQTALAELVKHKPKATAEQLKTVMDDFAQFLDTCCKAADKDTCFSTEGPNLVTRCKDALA

Binder: B1
- Kd (Human serum albumin): 110 nM
- Kd (Rat serum albumin): 800 nM
- Kd (Mouse serum albumin): 110 nM

Binder: B2
- Kd [1]: 700 nM
